In patent publication US20080138330 one finds activity data, which are given here for two substances.

The target in the data set is RTEF-1 (TEAD4) (Homo sapiens) (UniProt Q15561). Briefly: cell_activity.
RTEF-1 (TEAD4) (Homo sapiens), sequence (Q15561 other isoform, or with tags, fused parts or gaps): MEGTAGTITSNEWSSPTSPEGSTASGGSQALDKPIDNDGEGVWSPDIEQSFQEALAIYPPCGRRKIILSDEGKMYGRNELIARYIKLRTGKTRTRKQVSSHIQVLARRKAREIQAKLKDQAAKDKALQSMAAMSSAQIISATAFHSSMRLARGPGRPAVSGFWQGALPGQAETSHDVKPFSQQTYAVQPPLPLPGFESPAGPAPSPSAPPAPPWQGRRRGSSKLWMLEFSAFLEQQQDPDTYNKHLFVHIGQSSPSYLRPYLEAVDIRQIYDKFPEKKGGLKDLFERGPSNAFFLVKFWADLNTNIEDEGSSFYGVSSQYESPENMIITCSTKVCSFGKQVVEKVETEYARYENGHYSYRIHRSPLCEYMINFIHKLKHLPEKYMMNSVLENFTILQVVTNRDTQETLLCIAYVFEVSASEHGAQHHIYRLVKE

As for FGFR1 0.15 kb promoter (-48/+94), under “luciferase in BAEC”, the activity was over 3 fold.
In the case of VEGF 0.35 promoter (-194/+157), the activity (luciferase, +/-0.3, 2.7 +/-0.2 fold in hypoxia) was found to be 2.2 fold.
